Measurements reported in patent US20240209100A1 (DIAGONAL THERAPEUTICS, published 2024).

Assays:
[1] = target: T1, IL-18 receptor (IL-18Rα/IL-18Rβ) overexpressed on HEK-Blue IL-18 cells (Homo sapiens (Human), UniProt Q13478 19-541; O95256 20-599); experiment: cell-based or functional assay
T1 sequence 1: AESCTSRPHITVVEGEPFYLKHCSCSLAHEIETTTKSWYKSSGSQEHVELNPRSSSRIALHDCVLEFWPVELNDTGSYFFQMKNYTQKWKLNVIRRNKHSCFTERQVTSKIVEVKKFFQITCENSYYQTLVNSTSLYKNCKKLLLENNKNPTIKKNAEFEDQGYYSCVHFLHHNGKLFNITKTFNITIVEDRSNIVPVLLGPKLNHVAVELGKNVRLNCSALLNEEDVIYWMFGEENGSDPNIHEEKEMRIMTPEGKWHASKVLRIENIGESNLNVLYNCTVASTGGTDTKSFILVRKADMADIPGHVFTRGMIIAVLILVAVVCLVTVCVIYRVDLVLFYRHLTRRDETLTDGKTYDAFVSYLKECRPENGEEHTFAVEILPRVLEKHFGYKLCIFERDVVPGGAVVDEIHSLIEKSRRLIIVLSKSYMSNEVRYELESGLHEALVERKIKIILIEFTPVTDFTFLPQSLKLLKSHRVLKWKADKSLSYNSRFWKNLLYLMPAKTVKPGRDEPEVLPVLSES
T1 sequence 2: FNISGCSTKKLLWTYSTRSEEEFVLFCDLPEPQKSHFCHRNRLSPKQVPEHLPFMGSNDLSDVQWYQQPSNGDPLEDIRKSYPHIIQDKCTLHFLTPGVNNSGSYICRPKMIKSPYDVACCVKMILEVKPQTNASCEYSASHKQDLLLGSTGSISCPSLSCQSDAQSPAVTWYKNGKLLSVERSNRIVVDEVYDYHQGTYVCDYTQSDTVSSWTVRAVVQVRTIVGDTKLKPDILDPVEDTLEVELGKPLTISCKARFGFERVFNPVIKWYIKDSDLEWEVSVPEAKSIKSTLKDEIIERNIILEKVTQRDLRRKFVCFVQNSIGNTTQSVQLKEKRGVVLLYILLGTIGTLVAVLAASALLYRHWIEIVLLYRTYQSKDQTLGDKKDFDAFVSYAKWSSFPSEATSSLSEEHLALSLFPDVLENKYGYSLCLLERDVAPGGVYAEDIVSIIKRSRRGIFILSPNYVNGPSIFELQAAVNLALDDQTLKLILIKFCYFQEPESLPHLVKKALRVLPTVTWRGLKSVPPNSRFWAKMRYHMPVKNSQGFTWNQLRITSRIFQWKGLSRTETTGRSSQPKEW

[2] = target: T2, IL-18 receptor (IL-18Rα/IL-18Rβ) on human PBMCs (human, UniProt Q13478 19-541; O95256 20-599); experiment: cell-based or functional assay
T2 sequence 1: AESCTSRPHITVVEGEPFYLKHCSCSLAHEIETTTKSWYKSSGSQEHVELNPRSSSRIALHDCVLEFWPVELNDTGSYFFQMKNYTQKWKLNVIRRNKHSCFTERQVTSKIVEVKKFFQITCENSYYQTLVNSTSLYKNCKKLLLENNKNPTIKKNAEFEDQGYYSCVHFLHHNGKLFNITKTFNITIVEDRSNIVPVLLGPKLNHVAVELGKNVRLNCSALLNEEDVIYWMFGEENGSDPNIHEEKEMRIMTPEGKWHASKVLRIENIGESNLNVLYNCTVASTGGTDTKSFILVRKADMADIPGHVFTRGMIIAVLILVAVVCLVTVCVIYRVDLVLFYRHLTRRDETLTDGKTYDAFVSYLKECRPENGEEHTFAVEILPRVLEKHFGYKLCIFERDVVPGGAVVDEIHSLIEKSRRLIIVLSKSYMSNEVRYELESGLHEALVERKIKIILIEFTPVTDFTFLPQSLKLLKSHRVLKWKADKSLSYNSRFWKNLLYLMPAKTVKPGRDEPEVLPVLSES
T2 sequence 2: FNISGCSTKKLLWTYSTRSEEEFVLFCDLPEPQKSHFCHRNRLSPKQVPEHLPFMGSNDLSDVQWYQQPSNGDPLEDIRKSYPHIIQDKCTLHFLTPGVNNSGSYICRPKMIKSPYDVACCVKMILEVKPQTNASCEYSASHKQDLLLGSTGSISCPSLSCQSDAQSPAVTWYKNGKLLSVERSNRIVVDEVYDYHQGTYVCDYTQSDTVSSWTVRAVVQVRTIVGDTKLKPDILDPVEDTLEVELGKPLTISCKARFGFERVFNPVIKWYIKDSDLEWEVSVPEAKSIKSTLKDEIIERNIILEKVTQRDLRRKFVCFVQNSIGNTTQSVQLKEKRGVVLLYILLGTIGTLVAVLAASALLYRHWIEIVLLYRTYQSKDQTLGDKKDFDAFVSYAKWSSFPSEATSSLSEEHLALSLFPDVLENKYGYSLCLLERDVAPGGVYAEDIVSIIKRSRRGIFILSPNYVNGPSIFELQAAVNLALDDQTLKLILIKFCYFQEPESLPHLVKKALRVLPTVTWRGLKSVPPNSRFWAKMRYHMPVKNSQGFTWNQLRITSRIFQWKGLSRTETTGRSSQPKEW

[3] = target: T3, human IL-18Rα (human, UniProt Q13478 19-329, limits assumed); experiment: SPR (Carterra LSA), antibody captured on anti-human IgG-Fc, monomeric antigen as analyte, 25 C
T3 construct: Monomeric antigen injected in SPR; also called huIL18Ra; IL-18R alpha
T3 sequence: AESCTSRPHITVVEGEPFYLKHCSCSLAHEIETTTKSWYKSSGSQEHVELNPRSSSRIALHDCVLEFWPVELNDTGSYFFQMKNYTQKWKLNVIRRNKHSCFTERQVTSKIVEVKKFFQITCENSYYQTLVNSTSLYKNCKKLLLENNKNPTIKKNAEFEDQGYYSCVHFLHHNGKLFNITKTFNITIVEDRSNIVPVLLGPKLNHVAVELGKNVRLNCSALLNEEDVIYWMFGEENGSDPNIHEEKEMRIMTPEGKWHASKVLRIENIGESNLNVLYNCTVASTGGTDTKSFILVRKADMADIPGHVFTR
Experimental: (§1) SPR experiments were performed using Carterra LSA equipped with an HC30M chip (Carterra-Bio). Binding assays were carried out at 25° C. with HBSTE (10 mM HEPES ph7.4, 150 mM NaCl, 3 mM EDTA, 0.05% Tween-20) with 0.5 g/L BSA. A density of anti-human IgG-Fc capture lawn was established on an HC30M chip using amine coupling. […] Coupling of goat anti-human IgG (H+L) multi-species SP ads-UNLB (Southern Biotech, 2087-01) with standard immobilization was done for 15 minutes in 10 mM sodium acetate pH 4.5 and quenched using 1M ethanolamine HCl PH8.5. The anti-human IgG-Fc capture surface was then used to capture a panel of antibodies at 20 μg/mL. Monomeric antigen for human IL-18Rα, human IL-18Rβ, cynomolgus IL-18Rα, or rhesus IL-18Rβ targeted by the antibodies was injected over the captured antibody array at 6 concentrations in 4-fold dilution series starting at 500 nM. Binding data was referenced and blanked from a buffer injected, then globally fit to a 1:1 Langmuir binding model for estimation of ka, kd, and KD using Carterra Kinetics Software.

[4] = target: T4, human IL-18Rβ (human, UniProt O95256 20-356, limits assumed); experiment: as above
T4 construct: Monomeric antigen injected in SPR; also called IL-18R beta; IL-18Rb
T4 sequence: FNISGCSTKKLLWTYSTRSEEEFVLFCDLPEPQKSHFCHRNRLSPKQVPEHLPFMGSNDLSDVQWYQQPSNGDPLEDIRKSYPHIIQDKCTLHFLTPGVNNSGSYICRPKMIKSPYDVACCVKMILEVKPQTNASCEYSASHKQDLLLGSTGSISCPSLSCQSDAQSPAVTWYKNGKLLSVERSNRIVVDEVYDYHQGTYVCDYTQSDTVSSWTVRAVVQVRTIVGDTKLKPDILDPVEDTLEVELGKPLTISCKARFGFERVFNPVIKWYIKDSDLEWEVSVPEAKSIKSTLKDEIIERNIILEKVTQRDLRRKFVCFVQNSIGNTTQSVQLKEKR
Experimental: as §1

[5] = target: T5, cynomolgus IL-18Rα (cynomolgus, UniProt A0A2K5V3J9 19-328); experiment: as above
T5 construct: also called Cyno IL-18Rα; non-human primate IL-18Rα
T5 sequence: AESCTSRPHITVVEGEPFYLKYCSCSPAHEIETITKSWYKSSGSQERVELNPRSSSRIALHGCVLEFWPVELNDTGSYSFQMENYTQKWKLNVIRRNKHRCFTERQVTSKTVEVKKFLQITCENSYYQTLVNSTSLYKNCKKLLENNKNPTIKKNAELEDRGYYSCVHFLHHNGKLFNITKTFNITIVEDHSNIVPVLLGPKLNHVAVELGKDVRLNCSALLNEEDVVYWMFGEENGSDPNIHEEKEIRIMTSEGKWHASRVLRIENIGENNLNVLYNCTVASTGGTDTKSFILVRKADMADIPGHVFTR
Experimental: as §1

[6] = target: T6, rhesus IL-18Rβ (rhesus, UniProt F7HHC1 20-356); experiment: as above
T6 construct: also called non-human primate IL-18Rβ
T6 sequence: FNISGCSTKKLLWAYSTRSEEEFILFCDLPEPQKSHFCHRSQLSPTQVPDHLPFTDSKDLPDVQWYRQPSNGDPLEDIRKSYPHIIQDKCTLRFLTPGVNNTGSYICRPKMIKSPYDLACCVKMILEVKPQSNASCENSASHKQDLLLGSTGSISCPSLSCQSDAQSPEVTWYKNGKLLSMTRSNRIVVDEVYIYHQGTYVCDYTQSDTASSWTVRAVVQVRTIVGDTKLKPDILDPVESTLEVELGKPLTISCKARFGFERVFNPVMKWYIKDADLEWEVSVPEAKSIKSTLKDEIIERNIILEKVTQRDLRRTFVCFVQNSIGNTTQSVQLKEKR
Experimental: as §1

B1: DGL336 (bispecific antibody, V domains shown)
V domain 1: EVQLLESGGGLVQPGGSLRLSCAASGRTFSKHAMGWFRQAPGKGLEFVSAIDWSGGSTYYADSVKGRFTISRDNSKNTVYLQMNSLRAEDTAVYYCAADSYTDYAQLWLPELESEYDYWGQGTLVTVSS
V domain 2: EVQLVESGGGLIQPGGSLRLSCAASGSISSRDTMGWYRQAPGKGREMVSVISSSGNTNYADSVLGRFTISRDNAKNTVYLQMNALRAEDTAVYKCYAHRTYGVDYWGQGTLVTVSS
notes: humanized VHH-Fc heterodimer
HEK-Blue IL-18: Abs 405 at 100 nM [1]: 0.9 Abs | HEK-Blue IL-18: Fold over Background [1]: 4.9 fold | PBMC: calculated maximum induction of IFNγ after 24 hours, donor 1 [2]: 13000 | PBMC: calculated maximum induction of IFNγ after 24 hours, donor 2 [2]: 620 | PBMC: calculated maximum induction of IFNγ after 24 hours, donor 3 [2]: 17000 | PBMC: calculated maximum induction of IFNγ after 24 hours, donor 4 [2]: 9300 | PBMC: calculated maximum induction of IFNγ after 24 hours, donor 5 [2]: 1500 | PBMC: calculated maximum induction of IFNγ after 24 hours, donor 6 [2]: 1300 | Kd [3]: 11 nM | Kd [4]: 3.2 nM | Kd [5]: 14 nM | Kd [6]: 15 nM
